Patent publication US20240261333A1 (published 2024)
Each block holds one binder with its values, some of them ahead of it.

Assays:
[1] = target: T1, YBX1 (human, UniProt P67809 2-324); assay: co-IP with anti-FLAG, C-FLAG B3GNT2, mass spectrometry
T1 construct: also called NP_004550.2
Procedure: (§1) Cells were plated in 10-cm cell culture dishes and grown to 60-80% confluency. For each condition, two biological replicates were harvested for co-IP. Cells were washed with PBS and 4 mL of lysis buffer (20 mM HEPES, 1% Triton X-100, 150 mM NaCl, 1 mM EDTA, and 10% glycerol) containing protease inhibitor cocktail was added. Cells were scraped and lysate was incubated at 4° C. under rotary agitation for 1 h. Lysate was centrifuged at 14,000×g for 10 min at 4° C. Supernatant was transferred to a new tube and an aliquot was taken as the input. […] For Western blots, 10 μg/mL Chicken Anti-FLAG (Aves labs ET-DY100) and IgY control (R&D Systems AB-101-C) antibodies were biotinylated (Thermo Fisher Scientific 90407) and added to the respective conditions. Lysates with antibodies were incubated at 4° C. under rotary agitation overnight. For each mL of lysate, 50 μL of Pierce Protein A/G Magnetic Beads (Mass spectrometry; Thermo Fisher Scientific 88803) or Pierce Streptavidin Magnetic Beads (Western blot; Thermo Fisher Scientific 88817) was washed twice with lysis buffer. Lysates with antibodies were added to the beads and incubated at 4° C. under rotary agitation for 4 h. Beads were washed with lysis buffer 3 times and resuspended in lysis buffer for storage.
(§2) Magnetic beads were resuspended in 100 mM Tris pH 7.8, reduced, alkylated and digested with trypsin at 37° ° C. overnight. This solution was subjected to solid phase extraction to concentrate the peptides and remove unwanted reagents followed by injection onto a Shimadzu HPLC with fraction collector. Eight fractions were collected and after concentration were injected on a Waters NanoAcquity HPLC equipped with a self-packed Aeris 3 μm C18 analytical column 0.075 mm by 20 cm, (Phenomenex). Peptides were eluted using standard reverse-phase gradients. The effluent from the column was analyzed using a Thermo Orbitrap Elite mass spectrometer (nanospray configuration) operated in a data dependent manner for 54 minutes. The resulting fragmentation spectra were correlated against the known database using Proteome Discover 1.4 (Thermo Fisher Scientific).

[2] = target: T2, IMMT (human, UniProt Q16891-4 34-757, limits assumed); assay: as above
T2 construct: also called NP_001093639.1 (+3)
T2 sequence (looked up): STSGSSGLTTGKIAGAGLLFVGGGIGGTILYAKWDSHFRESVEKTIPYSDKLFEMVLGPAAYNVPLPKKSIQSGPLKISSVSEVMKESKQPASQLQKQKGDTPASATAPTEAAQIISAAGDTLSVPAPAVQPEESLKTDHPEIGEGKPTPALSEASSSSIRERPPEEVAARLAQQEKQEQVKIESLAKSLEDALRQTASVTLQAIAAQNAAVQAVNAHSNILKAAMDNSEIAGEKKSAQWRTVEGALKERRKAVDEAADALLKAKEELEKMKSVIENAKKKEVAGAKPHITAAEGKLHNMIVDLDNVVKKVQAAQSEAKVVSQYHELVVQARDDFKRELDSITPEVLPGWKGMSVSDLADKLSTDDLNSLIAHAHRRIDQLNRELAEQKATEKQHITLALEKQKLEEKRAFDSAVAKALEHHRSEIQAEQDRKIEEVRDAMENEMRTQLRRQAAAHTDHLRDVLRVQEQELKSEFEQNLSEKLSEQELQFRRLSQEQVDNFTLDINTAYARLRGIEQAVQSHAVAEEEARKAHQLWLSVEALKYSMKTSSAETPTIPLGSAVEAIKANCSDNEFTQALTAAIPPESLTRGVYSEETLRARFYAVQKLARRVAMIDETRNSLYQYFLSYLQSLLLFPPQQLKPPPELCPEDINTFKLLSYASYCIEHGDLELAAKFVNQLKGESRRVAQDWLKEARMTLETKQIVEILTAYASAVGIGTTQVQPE
Procedure: as §1, §2

[3] = target: RPS20 (human, UniProt P60866 2-119); assay: as above
Procedure: as §1, §2

[4] = target: T3, PRBP1 (human, UniProt P26599 1-557); assay: co-IP, anti-FLAG, lysate of cells with C-FLAG B3GNT2; mass spectrometry
T3 construct: Label 'PRBP1' is probably a misprint of PTBP1; also called NP_002810.1 (+4)

[5] = target: T4, CAT (human, UniProt P04040 2-527); assay: as above
T4 construct: also called NP_001743.1
T4 sequence (looked up): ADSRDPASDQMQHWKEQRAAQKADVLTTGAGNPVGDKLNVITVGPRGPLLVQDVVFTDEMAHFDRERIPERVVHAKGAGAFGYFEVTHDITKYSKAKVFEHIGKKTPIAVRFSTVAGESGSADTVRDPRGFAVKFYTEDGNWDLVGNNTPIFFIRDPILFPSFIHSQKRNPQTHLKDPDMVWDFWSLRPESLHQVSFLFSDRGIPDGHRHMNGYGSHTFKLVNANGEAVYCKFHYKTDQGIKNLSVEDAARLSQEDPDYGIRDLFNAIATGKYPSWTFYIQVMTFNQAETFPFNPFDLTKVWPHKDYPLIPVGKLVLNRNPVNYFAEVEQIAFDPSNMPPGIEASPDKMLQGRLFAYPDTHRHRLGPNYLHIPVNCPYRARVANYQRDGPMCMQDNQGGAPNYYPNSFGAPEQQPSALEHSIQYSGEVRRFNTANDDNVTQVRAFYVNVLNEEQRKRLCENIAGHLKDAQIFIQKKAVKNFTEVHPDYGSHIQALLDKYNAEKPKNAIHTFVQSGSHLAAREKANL

[6] = target: T5, SAMM50 (human, UniProt Q9Y512 1-469); assay: as above
T5 construct: also called NP_056195.3
T5 sequence (looked up): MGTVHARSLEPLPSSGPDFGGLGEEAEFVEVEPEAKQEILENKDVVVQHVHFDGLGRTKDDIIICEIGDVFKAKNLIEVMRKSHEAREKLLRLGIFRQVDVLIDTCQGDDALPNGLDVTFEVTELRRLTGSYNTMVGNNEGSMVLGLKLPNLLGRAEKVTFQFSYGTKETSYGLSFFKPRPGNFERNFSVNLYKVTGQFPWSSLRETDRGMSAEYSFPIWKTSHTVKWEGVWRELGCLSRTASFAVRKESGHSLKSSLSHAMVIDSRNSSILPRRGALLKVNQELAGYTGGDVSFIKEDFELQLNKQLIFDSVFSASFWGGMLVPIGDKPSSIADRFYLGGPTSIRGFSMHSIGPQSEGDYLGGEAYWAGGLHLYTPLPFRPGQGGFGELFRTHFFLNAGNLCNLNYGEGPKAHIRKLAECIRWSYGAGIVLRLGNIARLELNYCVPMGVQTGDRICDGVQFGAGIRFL

T1 sequence (P67809 2-324 limits assumed): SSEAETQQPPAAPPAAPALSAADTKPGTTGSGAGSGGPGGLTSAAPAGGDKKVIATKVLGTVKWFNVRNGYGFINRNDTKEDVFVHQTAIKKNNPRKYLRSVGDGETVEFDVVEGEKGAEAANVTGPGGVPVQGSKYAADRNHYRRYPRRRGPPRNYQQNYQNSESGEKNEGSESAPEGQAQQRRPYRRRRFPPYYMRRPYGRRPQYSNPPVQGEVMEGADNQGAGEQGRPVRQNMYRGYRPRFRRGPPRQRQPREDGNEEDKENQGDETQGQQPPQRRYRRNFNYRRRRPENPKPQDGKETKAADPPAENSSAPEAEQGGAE
T3 sequence (P26599 whole entry): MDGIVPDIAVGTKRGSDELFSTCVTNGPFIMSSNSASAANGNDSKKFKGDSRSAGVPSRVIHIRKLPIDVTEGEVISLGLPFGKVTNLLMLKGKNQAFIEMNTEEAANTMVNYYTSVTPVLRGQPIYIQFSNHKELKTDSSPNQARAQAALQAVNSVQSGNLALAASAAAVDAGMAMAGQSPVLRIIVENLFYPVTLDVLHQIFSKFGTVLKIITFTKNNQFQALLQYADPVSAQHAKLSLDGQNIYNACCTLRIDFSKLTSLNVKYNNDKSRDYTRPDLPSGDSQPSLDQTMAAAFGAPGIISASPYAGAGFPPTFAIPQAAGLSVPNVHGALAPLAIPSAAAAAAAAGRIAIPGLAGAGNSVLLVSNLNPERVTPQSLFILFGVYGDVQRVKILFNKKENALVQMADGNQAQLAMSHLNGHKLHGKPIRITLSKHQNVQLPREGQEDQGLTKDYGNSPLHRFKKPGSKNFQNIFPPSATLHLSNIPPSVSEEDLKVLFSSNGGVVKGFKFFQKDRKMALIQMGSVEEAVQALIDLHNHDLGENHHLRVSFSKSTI

co-IP mass spectrometry count [1]: 9
co-IP mass spectrometry count [2]: 26
B1: C-terminal FLAG tagged B3GNT2 (enzyme, human, UniProt Q9NY97 1-397, looked up)
chain: MSVGRRRIKLLGILMMANVFIYFIMEVSKSSSQEKNGKGEVIIPKEKFWKISTPPEAYWNREQEKLNRQYNPILSMLTNQTGEAGRLSNISHLNYCEPDLRVTSVVTGFNNLPDRFKDFLLYLRCRNYSLLIDQPDKCAKKPFLLLAIKSLTPHFARRQAIRESWGQESNAGNQTVVRVFLLGQTPPEDNHPDLSDMLKFESEKHQDILMWNYRDTFFNLSLKEVLFLRWVSTSCPDTEFVFKGDDDVFVNTHHILNYLNSLSKTKAKDLFIGDVIHNAGPHRDKKLKYYIPEVVYSGLYPPYAGGGGFLYSGHLALRLYHITDQVHLYPIDDVYTGMCLQKLGLVPEKHKGFRTFDIEEKNKNNICSYVDLMLVHSRKPQEMIDIWSQLQSAHLKC
notes: FLAG-tagged ORF overexpressed in cells; pulled down from lysate with mouse anti-FLAG; also called C-FLAG B3GNT2; C-term flag; not shown: C-terminal FLAG tag

B2: C-terminal FLAG tagged B3GNT2 (enzyme, human, UniProt Q9NY97 1-397, looked up)
chain: B1 chain
notes: FLAG-tagged ORF overexpressed in A375 cells; pulled down from the lysate with mouse anti-FLAG; also called C-FLAG B3GNT2; C-term flag; not shown: C-terminal FLAG tag
co-IP/MS count, C-term flag [3]: 7

co-IP mass spectrometry count [4]: 9
co-IP mass spectrometry count [5]: 0
co-IP mass spectrometry count [6]: 0
B3: C-terminal FLAG tagged B3GNT2 (enzyme, human, UniProt Q9NY97 1-397, looked up)
chain: B1 chain
notes: Overexpressed in cells and pulled down from the lysate with mouse anti-FLAG antibody; also called C-FLAG B3GNT2; C-term flag; not shown: C-terminal FLAG tag
